Values of other authors, collected in article PMC12990809.

Assays:
Assay in all cases: pulldown
Settings in all cases: 20 nM protein, 1.5 uM RNA pool; 20 mM HEPES pH 7.8, 70 mM KCl, 10 mM NaCl, 10% glycerol, 2 mM DTT, 0.1 ug/uL BSA; 30 min, 4 C (protocol of this paper; not …); cited from earlier work
[1] = target: hnrnpabb (Tetraodon nigroviridis) (UniProt Q4SDS6)
[2] = target: T1, PF10_0214 (Plasmodium falciparum) (UniProt Q8IJI3)
T1 sequence: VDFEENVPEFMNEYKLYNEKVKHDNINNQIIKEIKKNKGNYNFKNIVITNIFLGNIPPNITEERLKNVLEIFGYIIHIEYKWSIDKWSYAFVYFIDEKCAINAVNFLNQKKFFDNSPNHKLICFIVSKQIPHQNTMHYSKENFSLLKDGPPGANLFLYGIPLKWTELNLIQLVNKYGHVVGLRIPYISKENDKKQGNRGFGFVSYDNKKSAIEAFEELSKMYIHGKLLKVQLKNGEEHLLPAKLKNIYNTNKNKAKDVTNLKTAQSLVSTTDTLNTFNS

[3] = target: T2, PFF0320c (Plasmodium falciparum) (UniProt C6KSR3)
T2 sequence: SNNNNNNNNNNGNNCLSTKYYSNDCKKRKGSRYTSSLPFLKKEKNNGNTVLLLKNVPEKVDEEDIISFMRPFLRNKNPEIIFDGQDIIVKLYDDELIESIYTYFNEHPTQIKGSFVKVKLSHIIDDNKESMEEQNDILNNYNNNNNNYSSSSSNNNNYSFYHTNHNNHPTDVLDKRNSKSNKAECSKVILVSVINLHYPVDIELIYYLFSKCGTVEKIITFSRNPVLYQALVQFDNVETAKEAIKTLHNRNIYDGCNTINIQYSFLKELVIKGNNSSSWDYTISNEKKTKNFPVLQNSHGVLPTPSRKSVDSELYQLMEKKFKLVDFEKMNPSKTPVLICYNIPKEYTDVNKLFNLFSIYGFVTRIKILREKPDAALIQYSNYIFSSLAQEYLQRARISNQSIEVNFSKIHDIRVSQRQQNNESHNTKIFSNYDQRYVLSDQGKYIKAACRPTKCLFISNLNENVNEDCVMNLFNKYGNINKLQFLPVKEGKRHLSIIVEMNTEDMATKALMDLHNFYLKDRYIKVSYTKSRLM

pcbp2 (Danio rerio) = pcbp2 (Danio rerio) (UniProt A0A8M1PCB6)
Sequence of pcbp2 (Danio rerio) (A0A8M1PCB6 entry or part of it): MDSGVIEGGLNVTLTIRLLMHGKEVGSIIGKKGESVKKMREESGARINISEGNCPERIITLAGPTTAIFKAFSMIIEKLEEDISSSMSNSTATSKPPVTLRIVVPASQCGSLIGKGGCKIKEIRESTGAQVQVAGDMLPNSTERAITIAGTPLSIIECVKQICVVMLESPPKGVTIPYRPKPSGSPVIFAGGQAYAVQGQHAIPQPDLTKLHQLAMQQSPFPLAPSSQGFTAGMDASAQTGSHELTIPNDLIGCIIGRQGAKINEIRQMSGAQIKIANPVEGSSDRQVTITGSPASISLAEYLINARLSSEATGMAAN

[4] = target: T3, Tb927.3.3670 (Trypanosoma brucei) (UniProt Q57WA3)
T3 sequence: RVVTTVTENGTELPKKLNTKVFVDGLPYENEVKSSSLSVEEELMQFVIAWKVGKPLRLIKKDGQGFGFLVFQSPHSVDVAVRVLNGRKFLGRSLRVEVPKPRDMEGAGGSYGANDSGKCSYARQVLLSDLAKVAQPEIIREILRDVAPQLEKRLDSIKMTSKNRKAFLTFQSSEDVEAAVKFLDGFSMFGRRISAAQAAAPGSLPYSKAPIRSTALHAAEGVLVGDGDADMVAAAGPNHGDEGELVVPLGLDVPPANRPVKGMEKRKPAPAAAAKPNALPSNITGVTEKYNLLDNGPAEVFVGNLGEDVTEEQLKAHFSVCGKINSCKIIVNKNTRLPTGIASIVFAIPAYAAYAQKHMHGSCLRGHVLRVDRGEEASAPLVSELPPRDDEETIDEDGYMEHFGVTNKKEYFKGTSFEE

[5] = target: T4, estExt_gwp_gw1.C_700168 (Physcomitrella patens) (UniProt A0A2K1JQP1)
T4 sequence: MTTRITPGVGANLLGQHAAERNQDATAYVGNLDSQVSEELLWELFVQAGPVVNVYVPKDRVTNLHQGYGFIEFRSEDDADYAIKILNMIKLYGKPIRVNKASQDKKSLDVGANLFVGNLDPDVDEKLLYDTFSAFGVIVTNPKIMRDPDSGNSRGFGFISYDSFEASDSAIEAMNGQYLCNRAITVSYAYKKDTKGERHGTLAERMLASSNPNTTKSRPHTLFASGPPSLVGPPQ

[6] = target: T5, NCU02404 (Neurospora crassa) (UniProt V5ILJ4)
T5 sequence: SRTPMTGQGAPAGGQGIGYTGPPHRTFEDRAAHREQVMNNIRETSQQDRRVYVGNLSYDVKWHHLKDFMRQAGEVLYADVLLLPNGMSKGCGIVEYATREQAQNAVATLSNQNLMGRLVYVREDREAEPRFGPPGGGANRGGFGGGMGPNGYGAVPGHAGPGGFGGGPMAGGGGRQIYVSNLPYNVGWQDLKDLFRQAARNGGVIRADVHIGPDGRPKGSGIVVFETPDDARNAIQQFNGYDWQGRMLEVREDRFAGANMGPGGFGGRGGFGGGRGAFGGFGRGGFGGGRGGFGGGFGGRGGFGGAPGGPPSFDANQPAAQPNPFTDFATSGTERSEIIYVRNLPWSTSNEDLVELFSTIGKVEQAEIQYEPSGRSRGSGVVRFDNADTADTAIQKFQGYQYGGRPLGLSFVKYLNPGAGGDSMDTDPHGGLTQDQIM

rbm4.3 (Danio rerio) = target: T6, rbm4.3 (Danio rerio) (UniProt A0ACM8Q3W8)
T6 sequence: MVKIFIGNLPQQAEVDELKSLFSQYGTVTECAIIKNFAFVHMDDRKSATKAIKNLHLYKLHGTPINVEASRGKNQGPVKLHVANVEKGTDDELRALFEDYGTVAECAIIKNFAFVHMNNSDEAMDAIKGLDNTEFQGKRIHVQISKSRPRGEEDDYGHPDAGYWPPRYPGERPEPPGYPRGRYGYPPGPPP

[7] = target: T7, fox-1 ins385_GNEYIMYHQAKQQELP (Caenorhabditis elegans) (UniProt Q10572)
T7 sequence: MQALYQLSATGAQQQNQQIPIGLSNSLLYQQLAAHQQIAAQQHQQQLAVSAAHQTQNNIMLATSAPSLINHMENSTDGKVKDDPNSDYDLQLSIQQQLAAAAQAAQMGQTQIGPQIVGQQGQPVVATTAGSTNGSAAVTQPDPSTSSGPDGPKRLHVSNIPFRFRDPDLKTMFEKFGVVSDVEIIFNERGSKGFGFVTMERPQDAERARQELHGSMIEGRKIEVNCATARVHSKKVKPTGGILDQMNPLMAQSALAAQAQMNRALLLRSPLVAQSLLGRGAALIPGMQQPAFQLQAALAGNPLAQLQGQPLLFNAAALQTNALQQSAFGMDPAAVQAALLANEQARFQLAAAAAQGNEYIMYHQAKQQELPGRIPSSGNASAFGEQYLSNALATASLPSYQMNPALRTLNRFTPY

[8] = target: T8, Tb11.03.0170 (Trypanosoma brucei) (UniProt Q387F5)
T8 sequence: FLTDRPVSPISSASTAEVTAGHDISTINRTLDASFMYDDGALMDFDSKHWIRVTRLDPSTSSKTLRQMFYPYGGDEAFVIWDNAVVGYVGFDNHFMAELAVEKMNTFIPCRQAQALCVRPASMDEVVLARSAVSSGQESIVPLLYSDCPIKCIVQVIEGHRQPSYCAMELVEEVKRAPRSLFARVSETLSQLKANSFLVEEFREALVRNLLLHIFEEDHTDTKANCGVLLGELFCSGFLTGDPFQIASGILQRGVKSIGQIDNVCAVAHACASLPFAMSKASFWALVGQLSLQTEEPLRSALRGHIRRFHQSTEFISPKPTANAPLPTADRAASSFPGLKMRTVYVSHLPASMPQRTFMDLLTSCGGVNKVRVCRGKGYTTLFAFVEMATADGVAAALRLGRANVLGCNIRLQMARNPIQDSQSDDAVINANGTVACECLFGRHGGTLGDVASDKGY

Pcbp1 (Mus musculus) = Pcbp1 (Mus musculus) (UniProt P60335)
Sequence of Pcbp1 (Mus musculus) (P60335 whole entry): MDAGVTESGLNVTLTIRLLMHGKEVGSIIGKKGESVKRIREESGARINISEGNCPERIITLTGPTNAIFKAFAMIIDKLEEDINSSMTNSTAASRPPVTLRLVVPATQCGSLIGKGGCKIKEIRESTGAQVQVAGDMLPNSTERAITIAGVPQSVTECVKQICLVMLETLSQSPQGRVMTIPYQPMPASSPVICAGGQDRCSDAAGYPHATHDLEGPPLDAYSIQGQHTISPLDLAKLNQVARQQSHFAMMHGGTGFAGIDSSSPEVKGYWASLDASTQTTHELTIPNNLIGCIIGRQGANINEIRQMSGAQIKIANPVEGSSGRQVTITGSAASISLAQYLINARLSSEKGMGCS

[9] = target: T9, Tb11.01.7680 (Trypanosoma brucei) (UniProt Q381I4)
T9 sequence: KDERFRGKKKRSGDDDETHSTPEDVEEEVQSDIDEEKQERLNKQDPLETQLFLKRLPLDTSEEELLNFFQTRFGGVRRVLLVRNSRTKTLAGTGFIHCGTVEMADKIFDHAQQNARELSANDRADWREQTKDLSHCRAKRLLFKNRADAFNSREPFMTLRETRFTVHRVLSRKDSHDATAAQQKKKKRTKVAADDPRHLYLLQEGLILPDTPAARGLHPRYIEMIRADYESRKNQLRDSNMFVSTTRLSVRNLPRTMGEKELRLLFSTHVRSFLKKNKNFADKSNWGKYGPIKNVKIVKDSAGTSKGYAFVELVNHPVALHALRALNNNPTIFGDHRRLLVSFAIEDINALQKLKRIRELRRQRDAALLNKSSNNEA

[10] = target: T10, Phyra93644 G140S (Phytophthora ramorum) (UniProt H3HB24)
T10 sequence: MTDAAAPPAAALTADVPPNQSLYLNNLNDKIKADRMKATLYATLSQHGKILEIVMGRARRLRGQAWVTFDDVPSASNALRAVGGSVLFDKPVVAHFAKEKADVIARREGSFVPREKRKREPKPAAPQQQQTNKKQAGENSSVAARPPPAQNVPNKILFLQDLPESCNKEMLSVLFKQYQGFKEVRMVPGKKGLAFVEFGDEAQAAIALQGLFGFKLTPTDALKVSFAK

[11] = target: T11, TVAG_514790 (Trichomonas vaginalis) (UniProt A2GMP0)
T11 sequence: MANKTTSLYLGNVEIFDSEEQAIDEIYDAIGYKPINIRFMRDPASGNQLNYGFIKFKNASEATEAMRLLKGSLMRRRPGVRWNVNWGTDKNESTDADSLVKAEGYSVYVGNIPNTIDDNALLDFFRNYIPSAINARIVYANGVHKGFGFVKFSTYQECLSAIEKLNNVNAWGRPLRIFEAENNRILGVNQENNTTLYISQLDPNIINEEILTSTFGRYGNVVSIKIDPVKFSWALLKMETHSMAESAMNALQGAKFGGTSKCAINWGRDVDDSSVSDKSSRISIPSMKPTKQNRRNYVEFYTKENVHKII

[12] = target: T12, MAL13P1.35 (Plasmodium falciparum) (UniProt C0H5A4)
T12 sequence: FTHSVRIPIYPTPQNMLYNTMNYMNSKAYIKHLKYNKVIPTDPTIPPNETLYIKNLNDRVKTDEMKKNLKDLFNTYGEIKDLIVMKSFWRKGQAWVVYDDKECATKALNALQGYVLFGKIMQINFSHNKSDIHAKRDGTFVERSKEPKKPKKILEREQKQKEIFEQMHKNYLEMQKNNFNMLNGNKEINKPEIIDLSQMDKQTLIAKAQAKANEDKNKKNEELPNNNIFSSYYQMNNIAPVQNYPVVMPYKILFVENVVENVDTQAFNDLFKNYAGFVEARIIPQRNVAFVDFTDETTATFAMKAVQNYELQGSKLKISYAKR

Rbm45 (Mus musculus) = target: T13, Rbm45 (Mus musculus) (UniProt Q8BHN5)
T13 sequence: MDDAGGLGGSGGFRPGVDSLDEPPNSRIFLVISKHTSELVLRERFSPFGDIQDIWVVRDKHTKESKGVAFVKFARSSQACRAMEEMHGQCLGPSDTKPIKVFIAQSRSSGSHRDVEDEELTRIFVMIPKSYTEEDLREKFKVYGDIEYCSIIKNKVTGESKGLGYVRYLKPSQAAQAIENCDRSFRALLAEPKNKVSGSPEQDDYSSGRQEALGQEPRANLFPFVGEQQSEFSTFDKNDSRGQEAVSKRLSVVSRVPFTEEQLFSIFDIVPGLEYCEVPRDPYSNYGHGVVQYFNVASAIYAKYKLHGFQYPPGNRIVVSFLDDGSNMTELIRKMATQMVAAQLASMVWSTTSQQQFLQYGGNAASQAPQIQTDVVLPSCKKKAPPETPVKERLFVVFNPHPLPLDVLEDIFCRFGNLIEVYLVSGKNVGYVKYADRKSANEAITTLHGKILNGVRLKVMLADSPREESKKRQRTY

[13] = target: T14, Smp_067420 (Schistosoma mansoni) (UniProt G4LZ80)
T14 sequence: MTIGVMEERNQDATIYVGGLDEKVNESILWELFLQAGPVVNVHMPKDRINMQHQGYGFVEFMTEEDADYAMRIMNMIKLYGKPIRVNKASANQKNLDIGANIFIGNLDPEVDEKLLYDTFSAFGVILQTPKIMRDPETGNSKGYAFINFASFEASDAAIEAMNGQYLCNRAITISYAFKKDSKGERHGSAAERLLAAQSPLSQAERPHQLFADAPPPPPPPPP

Sequence of hnrnpabb (Tetraodon nigroviridis) (Q4SDS6 entry or part of it): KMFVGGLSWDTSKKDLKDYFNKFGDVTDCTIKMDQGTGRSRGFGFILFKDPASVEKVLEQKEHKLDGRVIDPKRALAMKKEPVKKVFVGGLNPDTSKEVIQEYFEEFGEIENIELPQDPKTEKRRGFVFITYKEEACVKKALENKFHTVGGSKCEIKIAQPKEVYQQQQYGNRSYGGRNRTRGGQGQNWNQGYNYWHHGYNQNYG

AGAUAGA [RNAcompete motif RNCMPT00245]
binding signal (z-score (mean of top ten 7-mers)) [1]: 8.14

AUUCCGA [RNAcompete motif RNCMPT00240]
binding signal (z-score (mean of top ten 7-mers)) [2]: 11.3

ACUAAAC [RNAcompete motif RNCMPT00235]
binding signal (z-score (mean of top ten 7-mers)) [3]: 8.17

CUUUCCC [RNAcompete motif RNCMPT00246]
binding signal (z-score (mean of top ten 7-mers)) (pcbp2 (Danio rerio)): 6.92

GAAGGA [RNAcompete motif RNCMPT00230]
binding signal (z-score (mean of top ten 7-mers)) [4]: 6.23

GAUGGAGU [RNAcompete motif RNCMPT00237]
binding signal (z-score (mean of top ten 7-mers)) [5]: 9.26

GGAGGA [RNAcompete motif RNCMPT00238]
binding signal (z-score (mean of top ten 7-mers)) [6]: 6.21

ACGACG [RNAcompete motif RNCMPT00248]
binding signal (z-score (mean of top ten 7-mers)) (rbm4.3 (Danio rerio)): 10.2

UGCAUG [RNAcompete motif RNCMPT00017]
binding signal (z-score (mean of top ten 7-mers)) [7]: 24.8

UUCACAC [RNAcompete motif RNCMPT00251]
binding signal (z-score (mean of top ten 7-mers)) [8]: 9.19

CUUUCCC [RNAcompete motif RNCMPT00239]
binding signal (z-score (mean of top ten 7-mers)) (Pcbp1 (Mus musculus)): 6.21

AGUAGAU [RNAcompete motif RNCMPT00252]
binding signal (z-score (mean of top ten 7-mers)) [9]: 7.34

UUGCAC [RNAcompete motif RNCMPT00249]
binding signal (z-score (mean of top ten 7-mers)) [10]: 12

UUUUUU [RNAcompete motif RNCMPT00236]
binding signal (z-score (mean of top ten 7-mers)) [11]: 10.3

AUUACAC [RNAcompete motif RNCMPT00234]
binding signal (z-score (mean of top ten 7-mers)) [12]: 15.8

GACGAC [RNAcompete motif RNCMPT00241]
binding signal (z-score (mean of top ten 7-mers)) (Rbm45 (Mus musculus)): 10.6

AUUUUUU [RNAcompete motif RNCMPT00232]
binding signal (z-score (mean of top ten 7-mers)) [13]: 8.88
